From doi:10.1101/728246 (bioRxiv, 2019) come the findings set out here.

Data set [1] concerns the molecule itself. Description: negative-stain EM single-particle reconstruction.
Data set [2] concerns the molecule itself. Description: SEC.

B1: Mycobacterium tuberculosis Mfd (transcription-repair coupling factor) (natural protein)
chain: MTAPGPACSDTPIAGLVELALSAPTFQQLMQRAGGRPDELTLIAPASARLLVASALARQGPLLVVTATGREADDLAAELRGVFGDAVALLPSWETLPHERLSPGVDTVGTRLMALRRLAHPDDAQLGPPLGVVVTSVRSLLQPMTPQLGMMEPLTLTVGDESPFDGVVARLVELAYTRVDMVGRRGEFAVRGGILDIFAPTAEHPVRVEFWGDEITEMRMFSVADQRSIPEIDIHTLVAFACRELLLSEDVRARAAQLAARHPAAESTVTGSASDMLAKLAEGIAVDGMEAVLPVLWSDGHALLTDQLPDGTPVLVCDPEKVRTRAADLIRTGREFLEASWSVAALGTAENQAPVDVEQLGGSGFVELDQVRAAAARTGHPWWTLSQLSDESAIELDVRAAPSARGHQRDIDEIFAMLRAHIATGGYAALVAPGTGTAHRVVERLSESDTPAGMLDPGQAPKPGVVGVLQGPLRDGVIIPGANLVVITETDLTGSRVSAAEGKRLAAKRRNIVDPLALTAGDLVVHDQHGIGRFVEMVERTVGGARREYLVLEYASAKRGGGAKNTDKLYVPMDSLDQLSRYVGGQAPALSRLGGSDWANTKTKARRAVREIAGELVSLYAKRQASPGHAFSPDTPWQAELEDAFGFTETVDQLTAIEEVKADMEKPIPMDRVICGDVGYGKTEIAVRAAFKAVQDGKQVAVLVPTTLLADQHLQTFGERMSGFPVTIKGLSRFTDAAESRAVIDGLADGSVDIVIGTHRLLQTGVRWKDLGLVVVDEEQRFGVEHKEHIKSLRTHVDVLTMSATPIPRTLEMSLAGIREMSTILTPPEERYPVLTYVGPHDDKQIAAALRRELLRDGQAFYVHNRVSSIDAAAARVRELVPEARVVVAHGQMPEDLLETTVQRFWNREHDILVCTTIVETGLDISNANTLIVERADTFGLSQLHQLRGRVGRSRERGYAYFLYPPQVPLTETAYDRLATIAQNNELGAGMAVALKDLEIRGAGNVLGIEQSGHVAGVGFDLYVRLVGEALETYRDAYRAAADGQTVRTAEEPKDVRIDLPVDAHLPPDYIASDRLRLEGYRRLAAASSDREVAAVVDELTDRYGALPEPARRLAAVARLRLLCRGSGITDVTAASAATVRLSPLTLPDSAQVRLKRMYPGAHYRATTATVQVPIPRAGGLGAPRIRDVELVQMVADLITALAGKPRQHIGITNPSPPGEDGRGRNTTIKERQP
One may read the stoichiometry N as the number of molecules, sites or subunits per partner or assembly. On to B1, for which the “stoichiometry N” value in data set [1] stood at 12; in data set [2] it was 6.

B2: Mycobacterium smegmatis Mfd (natural protein)
chain: MTAPGHTSVQTPIAGLVELALSDPSLQDVIRRAADRPADLALVGPASARVLVAAALAQNGPLLVVAATGREADELTAELRGVFGDSVALFPSWETLPHERLSPGVETVGARLMLLRRLARPDDETLGAPLRVVVTTTRSLLQPMAPDLVDIEPVTLSVGAEMEFEDVVARLVDLSYTRVDMVGKRGEFAVRGGILDVFPPTAEHPVRVEFWGDEISEMRAFAIADQRSIPEVPVQTVVAVPCRELLMTDDVRERAAALAAEHPTTENTVPGTVPDMLAKLAEGIPVDGMEALLPLLHPIEPTTLTRHLPEGAPVLVCDPEKVRTRAADLIKTGREFLEASWSTAAVGGDAPIDLEALGASGFVTFEEAREAAREGGHPWWTLSQLSDESAVELDIRSAPSARGSQHNLEEIFAMLRAHVATGGYAAVVTPGIGTAHRVVEQLGEADTAATILEPGTAPKAGVVGVLKGPLCSGVVLPGANLVIITETDLTGNRVTANEGRKLAAKRRNVVDPLALTAGDLVVHDQHGIGKFVEMTERVVGGARREYLVLEYASSKRGGGTDKLYVPMDSLDQLSRYVGGEAPSLSRLGGSDWANTKTKARRAVREIASELVALYAKRQSAPGHAFGPDTPWQAEMEDAFGFTETIDQLTAIQEVKSDMEKPVPMDRVICGDVGYGKTEIAVRAAFKAVQDGKQVAVLVPTTLLADQHLQTFTNRMAGFPVTVKGLSRFTDPAESRAVIEGLKDGSVDVVIGTHRLLQTGVTWKDLGLIIVDEEQRFGVEHKEHIKSMRTHVDVLTMSATPIPRTLEMSLAGIREMSTILTPPEERYPVLTYVGPHDDKQVAAALRRELLRDGQAFYIHNRVRTIDEAAARVRQLVPEARVVVAHGQMNEETLEKTVEGFWNREYDILVCTTIVETGLDISNANTLIVERADTFGLSQLHQLRGRVGRSRERGYAYFLYPPNKPLTETAYDRLATIAQNNELGAGMAVAMKDLEIRGAGNVLGAEQSGHVAGVGFDLYVRLVGEAVEAYRAAADGKTVATPQEQKDVRIDLPVDAHLPPEYIGSDRLRLEAYRRLAAAADDDAVASVVDELIDRYGPLPEPAQRLVAVARLRLLCREFGITEIGAVSASTVRLSPMVLPDSAQLRLKRMYPGGHYRATTSTVQVPLPRAGEGVGAPRIRDLELVQWVAGLVLVLNGKGQGDVDMSKFSNPAGEAKR
As to B2, in data set [2], the “stoichiometry N” value worked out at 6.
